PMC9103184, “Kunitz-Type Peptides from Sea Anemones Protect Neuronal Cells against Parkinson’s Disease Inductors via Inhibition of ROS Production and ATP-Induced P2X7 Receptor Activation” (International Journal of Molecular Sciences, 2022)
Like-named read-outs stand apart in the source and are kept apart here.

Assays:
trypsin [1] = biological target: T1, trypsin (Bos taurus, UniProt P00760); experiment: Residual trypsin-inhibitory activity after heating; format: biochemical; conditions: all temperature ranges up to 100 °C; 7 μM peptide, 1.2 mM BAPNA, 37 °C, 410 nm, three parallel experiments
T1 sequence (P00760 24-246): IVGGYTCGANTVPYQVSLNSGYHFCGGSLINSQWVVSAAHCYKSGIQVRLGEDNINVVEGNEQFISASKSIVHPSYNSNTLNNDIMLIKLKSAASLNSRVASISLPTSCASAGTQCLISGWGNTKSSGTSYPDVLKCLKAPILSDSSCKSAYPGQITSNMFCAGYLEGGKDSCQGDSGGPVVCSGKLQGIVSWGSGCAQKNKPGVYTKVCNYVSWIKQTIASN
Method: Figure 6 The effects of temperature on the trypsin-inhibitory activity levels of peptides. Peptides were incubated at the temperatures for 30 min and their residual activities were measured.
The temperature influence on the activity levels of peptides was assessed by measuring their residual inhibitory activity levels. After preincubation at temperatures ranging from 25 to 100 °C for 25 min, the peptide solutions were added to trypsin solution and the reaction mixtures were incubated for 10 min at 37 °C, then 1.2 mM BAPNA was added, followed by incubation at 37 °C for 30 min. The final concentration of the peptides was 7 μM. Substrate hydrolysis was measured at 410 nm. The residual activity was calculated based on the results of three parallel experiments according to the following equation [60]:% = (1 − residual enzyme activity/enzyme activity without inhibitor) × 100

Neuro-2a cells = experiment: Paraquat-induced toxicity, cell viability (MTT); format: cell-based, murine; conditions: peptide up to 10 μM, 600 μM paraquat, 24 h
Method: The murine neuroblastoma cell line Neuro-2a was purchased from ATCC (CCL-131, American Type Culture Collection, Manassas, VA, USA). Cells were cultured in Dulbecco’s modified Eagle’s medium (DMEM) (Biolot, St. Petersburg, Russia) containing 10% fetal bovine serum (Biolot, St. Petersburg, Russia) and 1% penicillin/streptomycin (Biolot, St. Petersburg, Russia) according to ATCC’s instruction. Cells were incubated at 37 °C in a humidified atmosphere containing 5% CO2 (v/v). Before the experiments, Neuro-2a cells at a concentration of 1 × 10^4 cells/well were dispensed into 96-well plates and incubated for 24 h in a humidified atmosphere containing 5% CO2 to allow cell attachment.
Then, 20 μL of substance solution was loaded into the cells and incubated for 24 h followed by replacement of the medium with tested substances and 100 μL of fresh medium. Then, 10 μL of MTT (3-(4,5-dimethylthiazol-2-yl)-2,5- diphenyltetrazolium bromide) (Sigma-Aldrich, St. Louis, MO, USA) stock solution (5 mg/mL) was added to each well and the microplate was incubated for 4 h. […] The absorbance of the converted dye formazan was measured using a Multiskan FC microplate photometer (Thermo Scientific, Waltham, MA, USA) at a wavelength of 570 nm. […] Cytotoxic activity was expressed as the percentage of cell viability. […]

[2] = Thermal stability by CD spectroscopy; format: physicochemical
Method: Figure 5 Evaluation of the thermal stability of peptides in deionized water via CD spectroscopy. Recordings of the CD spectra of HCIQ2c1 (a), HMIQ3c1 (b), HCIQ4c7 (c), and HCIQ1c9 (d) were conducted in the far UV region (190–240 nm) after the solutions were incubated over a temperature range from 25 °C to 100 °C for 20–25 min.
Circular dichroism (CD) spectra were recorded on a Chirascan-Plus CD spectropolarimeter (Applied Photophysics, Leatherhead, UK) in quartz cuvettes with an optical path length of 0.1 cm for the peptide spectrum region. The peptides were dissolved in deionized water ([…]) and incubated at temperatures ranging from 25 °C to 100 °C for 20–25 min before recording the CD spectra. The secondary structure elements were calculated using the Provencher–Glockner method using advanced Provencher calculation programs from the CDPro software package (Leatherhead, UK).

trypsin [3] = biological target: T1, trypsin; conditions: cited from earlier work
Method: As mentioned above, the main function of Kunitz-type peptides is the inhibition of proteases, in particular trypsin. To confirm the bioactive conformation of HCIQ1c9, its ability to inhibit trypsin was determined. […] The decrease in trypsin-inhibitory activity of HCIQ1c9 and HCIQ4c7 in comparison with HCIQ2c1 is probably associated ... || The active spatial conformation of the peptides was also confirmed by the presence of trypsin-inhibitory activity. […] Thus, both negatively and positively charged residues at position P1’ led to decreases in the trypsin-inhibitory activity of the peptides, with HCIQ4c7 beings a stronger trypsin inhibitor than HCIQ1c9. This was due to the residue Glu17, which can make additional contact with ...

With “HCIQ2c1: recombinant Kunitz-type peptide from Heteractis crispa, UniProtKB ID A0A6B7FBD3 (IQGNICSEPKKVGRCRGSFPRFYFDSETGKCTPFIYGGCGGNGNNFETLHACRAICRA; UniProt A0A6B7FBD3 28-85, looked up)” the “trypsin-inhibitory activity after heating” value (trypsin [1]) was “inhibit trypsin completely at all temperature ranges”, the “influence on viability of paraquat-treated cells” value (Neuro-2a cells) was “did not influence the viability” and the “CD spectral change on further heating” value ([2]; 100 °C, deionized water, 20–25 min) was “decreased positive peaks at 193 nm”. For the same substance, the “thermostability: retains conformation and biological activity until” value ([2]; CD spectra and residual trypsin-inhibitory activity) was 90–100 °C, the “CD spectrum: no significant changes after heating until” value ([2]; deionized water, 25–100 °C for 20–25 min, 190–240 nm) was 90 °C and the Ki (trypsin [3]; as shown previously, ref not printed at place, read-out: inhibited trypsin at (order of magnitude)) was about 10 nM. The Ki (trypsin [3]; read-out: trypsin inhibitory constant (Ki)) was 52 nM.
